Tested on: MS2 coat protein
Test: apparent KD of MS2 coat protein; designed switch direction (-1 OFF switch, 1 ON switch): 1; higher = weaker reporter binding
Outline: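 Designed RNA switches with common flanks were transcribed on Illumina chips by stalled E. coli RNA polymerase and titrated with SNAP-549-labelled MS2 coat protein, from 0.7 or 1.5 nM doubling to 3 µM, in Tris-HCl pH 7.5 buffer with KCl, MgCl2, BSA, DTT, tRNA and Tween-20. Steps lasted 0.8–1.5 h (lowest) to 10–20 min (highest). Titrations ran without input, with 200 uM small-molecule ligand, or with an oligonucleotide input. Normalised cluster fluorescence was curve-fitted, and apparent KD is the per-design median over clusters.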

[1] = input ligand: microRNA oligo, concentration not stated
[2] = Eterna round: R95, input ligand: microRNA oligo, concentration not stated
[3] = Eterna round: R95, input ligand: FMN 200 uM
[4] = Eterna round: R95, input ligand: none

Sequence	apparent KD of MS2 coat protein [1]	apparent KD of MS2 coat protein (input ligand: FMN 200 uM)	apparent KD of MS2 coat protein (input ligand: none)	apparent KD of MS2 coat protein [2]	apparent KD of MS2 coat protein [3]	apparent KD of MS2 coat protein [4]
UGUUGUAUUACAGGAUAUCUAUUAGUUUUAAUUAGAGAAGGGUAUUCACAUGAGGAUCACCCAUGUAUAUACGAGGAAGUUGUG [JMF's solution 98] (Eterna round: R96, puzzle: Same State NG 1)	33.8 nM					
UUGCUCGUGUGAGGAUAUGCCGCCGUUUCGGCUGCAGAAGGUACUCUUUUACAUGAGGAUCACCCAUGUCUCUGUUGUUUCGUG [salish99_SSNG1_r04_937] (Eterna round: R96, puzzle: Same State NG 1)	96.4 nM	252 nM	148 nM			
GGAGGACAUGAGGAUCACCCAUGUGGAUGAUCGCUAGGAUAUGCGUAAAGGAGGAGUGGUGCAGAAGGAGUGGGAU [JR_SS1_Sub050] (puzzle: Same State 1)				261 nM		
AUUGCUGUCACAGGAUAUCAUGCGGAAAUCGCGUGAGAAGGGUGGACUCUGUCAUUCACGGAGGACAUGAGGAUCACCCAUGUG [SS NG10LRO19] (Eterna round: R96, puzzle: Same State NG 1)	8.78 nM	66.3 nM	22.3 nM			
GUGGUCAGACAUGAGGAUCACCCAUGUGGAAUAAAUAAGGAUUAGGAUAUGGAAUAUAGGAUAUACCAGAAGGAAUGGUUGGUG (Eterna round: R96, puzzle: Same State NG 3)	75.8 nM					
AUUGCUUACGCAGGAUAUGAUGUGGAAACUGCGUCAGAAGGGUGAACAGUAUCGUUGCAAGAGGACAUGAGGAUCACCCAUGUC [SameState NG1 #98] (Eterna round: R96, puzzle: Same State NG 1)	20.6 nM	27.9 nM	31.4 nM			
GUUAAACAUGAGGAUCACCCAUGUCAUCUAAGUCGAGGAUAUGGGAAUUAAUUAAUUAAACCAGAAGGCGAAAAUG [Mat - Same State 1 - D96] (puzzle: Same State 1)				174 nM	39 nM	126 nM
GGUGCGAAUAAAGCCUACAUGAGGAUCACCCAUGUAUGUAGGCAGGAUAUCGUUUGCUUUGCAAACGAGAAGGGCUGACGCACC [JL SSNG3 1.17] (Eterna round: R96, puzzle: Same State NG 3)	37.7 nM	27.4 nM	63.6 nM			
CUAUUAGGAUGAGGAUAUGCAGAGGAUCACCCUGUAGAAGGCAAUAGAUGAGGAUAUGCAGAGGAUCACCCUGUAGAAGGCAAC [pwkr ssNG DX.3] (Eterna round: R96, puzzle: Same State NG 1)	98.9 nM	423 nM	177 nM			
AAAUAAAACACAGGAUAUGCAACCAAUACGGCGGCAGAAGGGUGAGACAUGAGGAUCACCCAUGUACACGUCCCACAGACGUGC [Onlaa] (Eterna round: R96, puzzle: Same State NG 1)	243 nM	387 nM	175 nM			
AGUCCAGCCUAAGCUGGACAAAAGCAUGUACAUGAGGAUCACCCAUGUUCAUGUACAAGCUUUUUGCAAGUCAAAAG [Mat - hsa-mir-208a - Mod of JL - 76] (puzzle: Sensor for hsa-mir-208a)				28.1 nM	350 nM	664 nM
GCUAGAAUAAAAGCCAACAUGAGGAUCACCCAUGUAUGUUGGCAGGAUAUCGUAUGCAAAGCAUACGAGAAGGGCCAUACUAGC [Mat - Same State NG 3 - JL Mod - D24] (Eterna round: R96, puzzle: Same State NG 3)	96.7 nM	49.8 nM	121 nM			
AGCUAUUAAUCAGGAUAUGGUGACAUGAGGAUCACCCAUGUAUAGAUGAUUAAAUGUGGUCUAAACUAGAAGGGAUUACUAACA [SameState NG2 #54] (Eterna round: R96, puzzle: Same State NG 2)	283 nM	156 nM	268 nM			
GUUUUUAGUGCAGGAUAUGAUCAACAUGAGGAUCACCCAUGUGGCGUUGUGAGUAGGGAGAGAGAUCAGAAGGGCGUCUCCGCG [SS-NG2-LRO13] (Eterna round: R96, puzzle: Same State NG 2)	37 nM	51.5 nM	57.3 nM			
AUUAAACAUGAGGAUCACCCAUGUCAACAAAGUCGAGGAUAUGGGCAAAUAAAAUAAGAACCAGAAGGCGAAUAUU [salish99_ss1_r3_080] (puzzle: Same State 1)				407 nM	38.5 nM	180 nM
GUGGUCAGACAUGAGGAUCACCCAUGUGGAAUAAAUAAGGGUUAGGAUAUGCAAUAUAGGAUAUAGCAGAAGGGAUGGUUGGUG (Eterna round: R96, puzzle: Same State NG 3)	84.9 nM					

Sequence	apparent KD of MS2 coat protein [1]	apparent KD of MS2 coat protein (input ligand: FMN 200 uM)	apparent KD of MS2 coat protein (input ligand: none)	apparent KD of MS2 coat protein [2]	apparent KD of MS2 coat protein [3]	apparent KD of MS2 coat protein [4]
GACAAUCUAUCUGAGGAUAUCAUGAAUAAAACAUGAGGAUCACCCAUGUGCAGGAGAACUGCAAAUGAGAAGGCAGAUAGAUUGG [Mat - Same State 2 - Mod - D10] (puzzle: Same State 2)				37.2 nM	10 nM	26.9 nM
AGGCGGAUAUCACAGGAUAUGUGCGCGUUCACAUGAGGAUCACCCAUGUAAAGGACGAGCCAAAAGCAGAAGGGUGACCACGCGA [Aedorlebe] (puzzle: Same State 2)				14.8 nM	15.3 nM	25.4 nM
ACAGCCGGCACUGAGGAUAUUCAUAUUAAAACAUGAGGAUCACCCAUGUAGGCCAGAAGGCCUUGGGAGAAGGCAGGUCGGCUGA [Mat - Same State 2 - Mod of UCT - D64] (puzzle: Same State 2)				229 nM	18.8 nM	391 nM
CUCCGGAAGCGAGGAUAUGCAGAGGAUCACCCUGCAGAAGGCGCCCUUGCGAGGAUAUGCAGAGGAUCACCCUGCAGAAGGCGC [pwkr ssNG DX.30] (Eterna round: R96, puzzle: Same State NG 1)	15.4 nM	16.2 nM	28 nM			
AAGAAAUCCGCAGGAUAUCCUAAGCCGGGCUUAGGAGAAGGGUGGCCACAUGAGGAUCACCCAUGUAAAAGCUGAAUCACAGCC [Aerququ] (Eterna round: R96, puzzle: Same State NG 1)	388 nM	237 nM	523 nM			
AUUGCUGUCACAGGAUAUCAUGCGGAAAUCGCGUGAGAAGGGUGGACUCUGUCAUUCACGGAGGACAUGAGGAUCACCCAUGUC [SS NG10LRO18] (Eterna round: R96, puzzle: Same State NG 1)	29 nM	508 nM	62.4 nM			
GUACAUAUCGUAGGAUAUCACGUCGAAUAGACGUGAGAAGGACGGUCCCACAUGAAUAUUAAUACAUGAGGAUCACCCAUGUAC [MOD SSNG 1/18-A1 by Brourd] (Eterna round: R96, puzzle: Same State NG 1)	41.8 nM	92.5 nM	43 nM			
GAGUGGAGGAGAGGAUAUACAUUGAUAAUCACUGUAGAAGGUUCUAACAUGAGGAUCACCCAUGUAGGACUAUUCCUGAGAGUU [Parity 52 - Jieux - Same State NG 1] (Eterna round: R96, puzzle: Same State NG 1)	10.1 nM	8.87 nM	12.5 nM			
AUAUUUAAUGCAGGAUAUGAUUAACAUGAGGAUCACCCAUGUGGUGUUGUGAGUAAGGAGAGUGAUCAGAAGGGCAUUUUUUUU [JMF's solution 100] (Eterna round: R96, puzzle: Same State NG 2)	322 nM	821 nM	467 nM			
AAAGCCCGUGCUAAGGAUAUGCGUACUCCUACAUGAGGAUCACCCAUGUCCCGCCGAAAAGGAAGGCAGAAGGUAGCACGAGCAA [Teerarti] (puzzle: Same State 2)				96.5 nM	53.7 nM	102 nM
CCCUCACAUGAGGAUCACCCAUGUCCUAGCCCGUCAGGAUAUAGCCCGCAUCCGCUGCGGCUAGAAGGGACAGCUG [JR_SS001_Sub611] (Eterna round: R96, puzzle: Same State 1)	152 nM	177 nM	232 nM			
UAUUAGAUCCGAGGAUAUCCUUAUUAGAAACAUGAGGAUCACCCAUGUAAAGGGAAUUAUUUGUAGGAGAAGGCGGAUUUAGUU [JR_SSNG2_Sub056] (Eterna round: R96, puzzle: Same State NG 2)	41.7 nM					
AACAAUCUAUCUGAGGAUAUCAUUAAAUAAACAUGAGGAUCACCCAUGUGCAGGAAAACUGCAUAUGAGAAGGCAGAUAGAUUGA [salish99_ss2_r3_029] (puzzle: Same State 2)				46.2 nM	12.3 nM	55.2 nM
UGUUGUAUUACAGGAUAUCUAUUAGUAUUAUUUAGAGAAGGGUAUUCACAUGAGGAUCACCCAUGUAUAUACGAGGAAGUUGUG [JMF's solution 89] (Eterna round: R96, puzzle: Same State NG 1)	34.8 nM					
GCUACCAAUGAAGCCAACAUGAGGAUCACCCAUGUAUGUUGGCAGGAUAUCGAUUGCAAAGCGAUCGAGAAGGGCUAAGGUAGC [Mat - Same State NG 3 - JL Mod - D87] (Eterna round: R96, puzzle: Same State NG 3)	120 nM	107 nM	177 nM			
GUGGUCAGACAUGAGGAUCACCCAUGUGGAAUAAAUAACGGACAGGAUAUAGAAUAUAGGAUAUACUAGAAGGGUUGAUUGGUG (Eterna round: R96, puzzle: Same State NG 3)	45.1 nM					

Reference: the supplement of paper PMC9170038
